Assay results: PMC2222952, “Structural and Biochemical Bases for the Inhibition of Autophagy and Apoptosis by Viral BCL-2 of Murine γ-Herpesvirus 68” (PLoS Pathogens, 2008)
Read-outs that look alike come from different tables or passages of the source. Ends that are not written are not given here.

B6: M11 (residues 1–137), purified alone (domain or fragment)
chain: MSHKKSGTYWATLITAFLKTVSKVEELDCVDSAVLVDVSKIITLTQEFRRHYDSVYRADYGPALKNWKRDLSKLFTSLFVDVINSGRIVGFFDVGRYVCEEVLCPGSWTEDHELLNDCMTHFFIENNLMNHFPLEDI
notes: source: E. coli BL21(DE3), purified (Ni-NTA, Hitrap Q)

How the values were obtained:
[1] = molecular target: T1, M11, viral BCL-2 of murine γ-herpesvirus 68 (residues 1–137) (Murid herpesvirus 4, UniProt P89884); type: binding
T1 construct: Each of the DNA fragments coding for M11 (residues 1–137); His6 tag; This is inferred: pPROEX HTa encodes an N-terminal His tag with a TEV site, and purification was on Ni-NTA; (N); made in house; host or cells: E. coli BL21(DE3)
T1 sequence (P89884 whole entry, looked up): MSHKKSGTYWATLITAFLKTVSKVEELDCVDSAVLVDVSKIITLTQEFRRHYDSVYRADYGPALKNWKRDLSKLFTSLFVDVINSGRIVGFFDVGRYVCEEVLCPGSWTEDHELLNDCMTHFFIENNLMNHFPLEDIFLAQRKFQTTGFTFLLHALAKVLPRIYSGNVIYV
Excerpt: (§1) “HT”, “CCD” and “ECD” denote hydrophobic tail, coiled-coil domain and evolutionarily conserved domain, respectively. […] The surface coloring scheme is as follows: olive for Val, Leu, Ile, Phe, Trp, Met, and Ala; yellow for Cys, Gly, Tyr, and Pro; gray for other amino acids. […] Only the BH3-binding groove region of M11 is shown for clarity. […] The arrows indicate the movements of the Cα atoms of Asp59 and Tyr60 in M11. (C) ITC analysis.
(§2) Figure 5 Analyses of the Interactions between M11 or BCL-2 Proteins and BAX/BAK (A) Cell-based binding assay. 293T cells were transfected with HA-tagged BAK or Flag-tagged BAX together with the indicated GST-tagged prosurvival BCL-2 proteins. Whole cell lysates were used for immunoprecipitation with anti-GST followed by immunoblotting with anti-HA or anti-Flag. […] (B) ITC analyses of the interactions of M11 with the BH3 peptides of BAX or BAK. The ITC analysis was carried out by titrating 0.1 mM of the indicated peptides into 5 μM of M11. The ITC run for the titration of the 26-mer BAK peptide is shown. […] NIH3T3 cells were transfected with HA-tagged M11 and whole cell lysates were used for immunoprecipitation with control rabbit serum or anti-BAK followed by immunoblotting with anti-HA.
(§3) A plasmid containing the DNA segment coding for human BCL-2 (residues 1–50 and 92–207) was also constructed. The resulting protein lacks the internal long loop (residues 51–91) and contains a replacement of residues 35–50 with residues 33–48 of BCL-XL, which was necessary for the solubility of the protein as reported earlier. Each construct was introduced into the E. coli BL21(DE3) strain. The proteins were expressed at 21 °C overnight and purified using a Ni-NTA column and a Hitrap Q anion exchange column.
(§4) All measurements were carried out at 25 °C on a MicroCalorimetry System (MicroCal). Protein samples were dialyzed against the solution containing 20 mM Tris-HCl (pH 7.4) and 100 mM NaCl. The samples were degassed for 20 min and centrifuged to remove any residuals prior to the measurements. Dilution enthalpies were measured in separate experiments (titrant into buffer) and subtracted from the enthalpies of the binding between the protein and the titrant. Data were analyzed using the Origin software (OriginLab Corp.).

[2] = test system: A1 ∆C20; design: method as in earlier work; details: Table S1; relative values, not absolute KD; peptides of Chen et al. are the same as or 1 to 2 residues shorter than those of this paper; read-out: binding affinity for A1 ∆C20 (relative value, competitive binding assay); cited from earlier work
[3] = test system: BCL-XL ∆C24; details: Table S1; relative values, not absolute KD; peptides of Chen et al. are the same as or 1 to 2 residues shorter than those of this paper; read-out: binding affinity for BCL-XL ∆C24 (relative value, competitive binding assay); cited from earlier work
[4] = test system: BCL-w ∆C29; details: Table S1; relative values, not absolute KD; peptides of Chen et al. are the same as or 1 to 2 residues shorter than those of this paper; read-out: binding affinity for BCL-w ∆C29 (relative value, competitive binding assay); cited from earlier work
[5] = test system: MCL ∆N151 ∆C23; design: method as in earlier work; details: Table S1; relative values, not absolute KD; peptides of Chen et al. are the same as or 1 to 2 residues shorter than those of this paper; read-out: binding affinity for MCL ∆N151 ∆C23 (relative value, competitive binding assay); cited from earlier work
[6] = molecular target: T2, M11, viral BCL-2 of murine γ-herpesvirus 68 (residues 1–137) (Murid herpesvirus 4, UniProt P89884); type: binding; details: ITC, 25 °C, 20 mM Tris-HCl (pH 7.4), 100 mM NaCl; Table S2
T2 construct: Each of the DNA fragments coding for M11 (residues 1–137); His6 tag; This is inferred: pPROEX HTa encodes an N-terminal His tag with a TEV site, and purification was on Ni-NTA; (N); made in house; host or cells: E. coli BL21(DE3)
Excerpt: as §1, §2, §3, §4

[7] = test system: BCL-2 ∆C22; design: method as in earlier work; details: Table S1; relative values, not absolute KD; peptides of Chen et al. are the same as or 1 to 2 residues shorter than those of this paper; read-out: binding affinity for BCL-2 ∆C22 (relative value, competitive binding assay); cited from earlier work
[8] = molecular target: T3, mouse BCL-XL (residues 1–44 and 85–196) (mouse, UniProt Q64373-1 1-196, lacking the internal long loop (residues 45–84)); assay: native gel or EMSA; details: both partners purified
T3 construct: also called BCL-XL lacking the internal long loop and the C-terminal tail region

[9] = molecular target: B6; assay: ITC; details: both partners purified
[10] = molecular target: human BCL-2 (residues 1–50 and 92–207); assay: Isothermal titration calorimetry (ITC) of BCL-2 with Beclin1 fragment; type: binding
Procedure: Figure 3 M11 Interacts Much More Tightly with Beclin1 than BCL-2 and BCL-XL (A) ITC analysis. The measurement was carried out by titrating 0.1 mM of M11 or BCL-2 into 5 μM of the indicated Beclin1 fragment. The K D values were deduced from curve fittings of the integrated heat per mol of added ligand. (B) M11–Beclin1 interface is tighter than that of BCL-XL–Beclin1. The structures of M11–Beclin1 fragment (left) and BCL-XL–Beclin1 peptide (right) are compared side by side. In both the structures, the five consensus BH3 residues of the bound α-helices and the side chains of M11 or BCL-XL interacting with those residues are shown as sticks and labeled. Noted are the tighter interactions of the N-terminal region of Beclin1 with the α3 helix of M11 than the corresponding region in the BCL-XL–Beclin1 helix (indicated by dotted circles).
Each of the DNA fragments coding for M11 (residues 1–137), mouse BCL-XL (residues 1–44 and 85–196) or mouse Beclin1 (residues 101–267) was cloned into pPROEX HTa. […]
All measurements were carried out at 25 °C on a MicroCalorimetry System (MicroCal). […] Dilution enthalpies were measured in separate experiments (titrant into buffer) and subtracted from the enthalpies of the binding between the protein and the titrant. Data were analyzed using the Origin software (OriginLab Corp.).

[11] = molecular target: T4, Beclin1(101–267) (mouse, UniProt O88597 101-267); assay: ITC; details: both partners purified
T4 construct: also called Beclin1 fragment containing residues 101–267; large Beclin1 fragment; source: E. coli BL21(DE3), purified (Ni-NTA, Hitrap Q)

[12] = 25 °C, 20 mM Tris-HCl (pH 7.4), 100 mM NaCl
[13] = ITC, 25 °C, 20 mM Tris-HCl (pH 7.4), 100 mM NaCl, Table S2

T3 sequence (Q64373 other isoform, or with tags, fused parts or gaps with the stated changes): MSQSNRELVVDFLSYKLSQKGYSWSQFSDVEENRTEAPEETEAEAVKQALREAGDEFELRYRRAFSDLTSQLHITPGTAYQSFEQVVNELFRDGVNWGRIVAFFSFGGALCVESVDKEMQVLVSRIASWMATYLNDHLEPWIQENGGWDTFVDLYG

BAK (16-mer; residues 69-84): synthetic 16-mer peptide, residues 69–84 of BAK, spanning the BH3 domain (LGQVGRQLALIGDDIN)
interaction with M11 in ITC, in words (KD could not be deduced) [1, 12]: flat titration curve

BIK: synthetic 25-mer BH3 peptide, residues 45–69 of BIK (VEGRNQVALRLACIGDEMDLCLRSP)
IC50 [2]: 0.058 µM
IC50 [3]: 0.043 µM
IC50 [4]: 0.012 µM
interaction with M11 in ITC, in words (KD could not be deduced) [1, 12]: did not interact or poorly interacted

Beclin1 fragment composed of residues 101–116: a shorter Beclin1 fragment composed of residues 101–116 (ASDGGTMENLSRRLKV)
interaction with M11 in ITC, in words (KD could not be deduced) [1, 12]: no sign of interaction

EEEWAREIGAQLRRMADDLNAQYERR [PUMA]
IC50 [5]: 0.005 µM
IC50 [2]: 0.0057 µM

HRAEVQIARKLQCIADQFHRLHTQ [BMF]
IC50 [5]: 1.1 µM
IC50 [2]: 1.8 µM
IC50 [3]: 0.0097 µM
IC50 [4]: 0.0098 µM
-T∆S (M11 + BH3) [6]: -10.7 kJ/mol
∆G (M11 + BH3) [6]: -37.2 kJ/mol
∆H (M11 + BH3) [6]: -26.5 ± 0.29 kJ/mol
IC50 [7]: 0.003 µM

RWAAAQVTALRLQALGDELHRRAMRR [Hrk]
IC50 [2]: 0.046 µM
IC50 [3]: 0.0037 µM
IC50 [4]: 0.049 µM
IC50 [7]: 0.32 µM

B1: BAD BH3 peptide, 27-mer (residues 137–163 of BAD) (peptide, UniProt Q61337 137-163, looked up)
peptide: APPNLWAAQRYGRELRRMSDEFEGSFK
notes: also called BAD peptide; source: synthetic peptide, bought: Peptron (Korea)
binding result [8]: binds

B2: BID BH3 peptide, 25-mer (residues 80–104 of BID) (peptide, UniProt P70444 80-104, looked up)
peptide: EEIIHNIARHLAQIGDEMDHNIQPT
notes: also called BID peptide; source: synthetic peptide, bought: Peptron (Korea)
binding result [9]: binds

B3: Beclin1(101–267): mouse Beclin1 fragment containing residues 101–267, expressed as a soluble form in E. coli (protein)
chain: ASDGGTMENLSRRLKVTGDLFDIMSGQTDVDHPLCEECTDTLLDQLDTQLNVTENECQNYKRCLEILEQMNEDDSEQLQRELKELALEEERLIQELEDVEKNRKVVAENLEKVQAEAERLDQEEAQYQREYSEFKRQQLELDDELKSVENQVRYAQIQLDKLKKTNV
Kd ([10]; 25 °C, 20 mM Tris-HCl (pH 7.4), 100 mM NaCl, Table S2, read-out: KD (BCL-2 + Beclin1)): 1.68 ± 0.452 µM
Kd ([10]; read-out: binding affinity between cellular BCL-2 and Beclin1): 1.7 µM
Kd ([1]; ITC, 25 °C, 20 mM Tris-HCl (pH 7.4), 100 mM NaCl, 0.1 mM M11 titrated into 5 μM Beclin1 fragment, KD from curve fitting, listed as Residues 101 - 267, read-out: KD (M11 – Beclin1 fragment)): 0.0402 ± 0.00905 µM
Kd ([1]; ITC, 25 °C, 20 mM Tris-HCl (pH 7.4), 100 mM NaCl, 0.1 mM M11 titrated into 5 μM Beclin1 fragment, KD from curve fitting, read-out: KD (M11 – Beclin1 fragment)): 0.04 µM
-T∆S (M11 + Beclin1) [1, 13]: 17.7 kJ/mol
∆G (M11 + Beclin1) [1, 13]: -42.26 kJ/mol
∆H (M11 + Beclin1) [1, 13]: -59.96 ± 0.962 kJ/mol
Kd ([1]; ITC, read-out: dissociation constant (M11 – BH3-like domain of Beclin1)): 0.04 µM

B4: BAX BH3 peptide, 26-mer (residues 52–77 of BAX) (peptide, UniProt Q07813-1 52-77, looked up)
peptide: QDASTKKLSECLRRIGDELDSNMELQ
notes: also called BAX peptide; source: synthetic peptide, bought: Peptron (Korea)
Kd [9]: 0.69 µM

B5: human BCL-2 (residues 1–50 and 92–207, residues 35–50 replaced with residues 33–48 of BCL-XL) (domain or fragment, UniProt P10415-1 1-34, looked up)
chain: MAHAGRTGYDNREIVMKYIHYKLSQRGYEWDAGDNRTEAPEGTESEMETPVVHLTLRQAGDDFSRRYRRDFAEMSSQLHLTPFTARGRFATVVEELFRDGVNWGRIVAFFEFGGVMCVESVNREMSPLVDNIALWMTEYLNRHLHTWIQDNGGWDAFVELYGPSMR
notes: also called cellular BCL-2; source: E. coli BL21(DE3), purified (Ni-NTA, Hitrap Q)
Kd [11]: 1.7 µM

B6
Kd [11]: 0.04 µM

B7: Noxa BH3 peptide, 26-mer (residues 16–41 of Noxa) (peptide, UniProt Q9JM54 16-41, looked up)
peptide: RAELPPEFAAQLRKIGDKVYCTWSAP
notes: also called Noxa peptide; source: synthetic peptide, bought: Peptron (Korea)
binding result [9]: binds

B8: PUMA BH3 peptide, 26-mer (residues 130–155 of PUMA) (peptide, UniProt Q99ML1 130-155, looked up)
peptide: EEEWAREIGAQLRRMADDLNAQYERR
notes: also called PUMA peptide; source: synthetic peptide, bought: Peptron (Korea)
binding result [9]: binds

B9: BIM BH3 peptide, 26-mer (residues 139–164 of BIM) (peptide, UniProt O54918-1 139-164, looked up)
peptide: DLRPEIRIAQELRRIGDEFNETYTRR
notes: also called BIM peptide; source: synthetic peptide, bought: Peptron (Korea)
binding result [9]: binds
binding result [8]: binds

B10: BAK BH3 peptide, 26-mer (residues 65–90 of BAK) (peptide, UniProt O08734 65-90, looked up)
peptide: PNSILGQVGRQLALIGDDINRRYDTE
notes: also called BAK peptide; 26-mer BAK peptide; source: synthetic peptide, bought: Peptron (Korea)
Kd [9]: 0.076 µM
